Patent US6699662, “Inhibitors of staphylococcus SarA protein function involved in the expression of staphylococcal virulence factors and the use thereof in treating staphylococcal infections” (University of Arkansas)

Molecular target: T1, SarA (staphylococcal accessory regulator A), strain DB (Staphylococcus aureus, UniProt Q2G2U9 SEQ:1-124)
T1 sequence: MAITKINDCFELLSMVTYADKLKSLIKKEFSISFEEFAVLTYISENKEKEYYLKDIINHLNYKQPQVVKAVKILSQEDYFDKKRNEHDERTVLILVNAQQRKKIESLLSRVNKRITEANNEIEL
Assay: footprint
Conditions: tags: none (untagged full-length, expressed from pET9a in E. coli BL21(DE3)pLys); chain copies: 2 (dimer, stated); label: 32P

B1: agr P2-P3 inter-promoter region (cloned in pBKH50; DNase I footprint fragment about 240 bp with vector ends) (dsDNA)
DNA 1: CATTAAAACATGCTAAAAGCATTTATTTTCCAATTTTTCTTAACTAGTCGTTTTTTATTCTTAACTGTAAATTTTTTTATGTTAAAATATTAAATACAAATTACATTTAACAGTTAAGTATTTATTTCCTACAGTTAGGCAATATAATGATAAAAGATTGTACTAAATCGTATAATGACAGGATCCCCGG
DNA 2: CCGGGGATCCTGTCATTATACGATTTAGTACAATCTTTTATCATTATATTGCCTAACTGTAGGAAATAAATACTTAACTGTTAAATGTAATTTGTATTTAATATTTTAACATAAAAAAATTTACAGTTAAGAATAAAAAACGACTAGTTAAGAAAAATTGGAAAATAAATGCTTTTAGCATGTTTTAAGT
For B1, the “apparent K (half saturation)” value was 4.24 pM.
